{"source": "patent US10434147B2", "about": "“Treatment type 2 diabetes mellitus patients” (Sanofi-Aventis Deutschland GmbH, priority 2015, dated 2019)", "system": "Patients with Type 2 Diabetes Insufficiently Controlled with Insulin Glargine with or without Metformin", "assay": "Treatment-emergent adverse events, 26-week study", "assay_type": "in vivo, human", "settings": "in vivo", "description": "FIG. 6—Graphical study design. ^1 Insulin glargine should be injected subcutaneously once daily at dinner or breakfast time (according to patient's/investigators' preference). […] Meal used for insulin glulisine dosing should remain the same throughout the 26-week treatment period. ^4 Injection of insulin glulisine prior to breakfast, lunch and dinner.\nCo-primary endpoints at 26 weeks were (1) non-inferiority (95% CI upper bound <0.4%) in HbA1c reduction with LIXI vs GLU-1 and (2) for LIXI vs GLU-3, either non-inferiority in HbA1c reduction (2a) OR superiority (one-sided α≤0.025) in body weight change (2b). FPG, PPG, IG dose, composite outcomes, AEs, and hypoglycemia were assessed.", "data": [{"substance": "Insulin Glulisine TID: insulin glulisine three times daily, added to insulin glargine ± metformin (comparator arm)", "values": [{"measurement": "Patients with treatment emergent SAE: Decreased appetite", "value": "0 n (%)"}, {"measurement": "Patients with treatment emergent SAE: Dehydration", "value": "0 n (%)"}, {"measurement": "Patients with treatment emergent SAE: Diabetic bullosis", "value": "0 n (%)"}, {"measurement": "Patients with treatment emergent SAE: Epigastric discomfort", "value": "0 n (%)"}, {"measurement": "Patients with treatment emergent SAE: Erysipelas", "value": "0 n (%)"}, {"measurement": "Patients with treatment emergent SAE: Gastric ulcer haemorrhage", "value": "0 n (%)"}, {"measurement": "Patients with treatment emergent SAE: Gastrointestinal disorders (SOC)", "value": "0 n (%)"}, {"measurement": "Patients with treatment emergent SAE: Hepatic mass", "value": "0 n (%)"}, {"measurement": "Patients with treatment emergent SAE: Hepatobiliary disorders (SOC)", "value": "0 n (%)"}, {"measurement": "Patients with treatment emergent SAE: Hypertension", "value": "1 (0.3%) n (%)"}, {"measurement": "Patients with treatment emergent SAE: Hypoglycaemia", "value": "0 n (%)"}, {"measurement": "Patients with treatment emergent SAE: Hypoglycaemic unconsciousness", "value": "0 n (%)"}, {"measurement": "Patients with treatment emergent SAE: Incisional hernia", "value": "0 n (%)"}, {"measurement": "Patients with treatment emergent SAE: Infections and infestations (SOC)", "value": "1 (0.3%) n (%)"}, {"measurement": "Patients with treatment emergent SAE: Injury, poisoning and procedural complications (SOC)", "value": "1 (0.3%) n (%)"}, {"measurement": "Patients with treatment emergent SAE: Invasive ductal breast carcinoma", "value": "1 (0.3%) n (%)"}, {"measurement": "Patients with treatment emergent SAE: Metabolism and nutrition disorders (SOC)", "value": "0 n (%)"}, {"measurement": "Patients with treatment emergent SAE: Myocardial infarction", "value": "0 n (%)"}, {"measurement": "Patients with treatment emergent SAE: Myocardial ischaemia", "value": "1 (0.3%) n (%)"}, {"measurement": "Patients with treatment emergent SAE: Neoplasm malignant", "value": "1 (0.3%) n (%)"}, {"measurement": "Patients with treatment emergent SAE: Neoplasms benign, malignant and unspecified (incl cysts and polyps) (SOC)", "value": "3 (1.0%) n (%)"}, {"measurement": "Patients with treatment emergent SAE: Nervous system disorders (SOC)", "value": "2 (0.7%) n (%)"}, {"measurement": "Patients with treatment emergent SAE: Neuritis cranial", "value": "0 n (%)"}, {"measurement": "Patients with treatment emergent SAE: Pancreatic carcinoma metastatic", "value": "0 n (%)"}, {"measurement": "Patients with treatment emergent SAE: Penile infection", "value": "0 n (%)"}, {"measurement": "Patients with treatment emergent SAE: Renal and urinary disorders (SOC)", "value": "0 n (%)"}, {"measurement": "Patients with treatment emergent SAE: Renal failure", "value": "0 n (%)"}, {"measurement": "Patients with treatment emergent SAE: Renal failure acute", "value": "0 n (%)"}, {"measurement": "Patients with treatment emergent SAE: Septic arthritis staphylococcal", "value": "0 n (%)"}, {"measurement": "Patients with treatment emergent SAE: Skin and subcutaneous tissue disorders (SOC)", "value": "1 (0.3%) n (%)"}, {"measurement": "Patients with treatment emergent SAE: Skin ulcer haemorrhage", "value": "1 (0.3%) n (%)"}, {"measurement": "Patients with treatment emergent SAE: Uterine cancer", "value": "0 n (%)"}, {"measurement": "Patients with treatment emergent SAE: Vascular disorders (SOC)", "value": "1 (0.3%) n (%)"}, {"measurement": "TEAE leading to permanent treatment discontinuation: Abdominal pain", "value": "0 n (%)"}, {"measurement": "TEAE leading to permanent treatment discontinuation: Any class", "value": "3 (1.0%) n (%)"}, {"measurement": "TEAE leading to permanent treatment discontinuation: Ascites", "value": "0 n (%)"}, {"measurement": "TEAE leading to permanent treatment discontinuation: Blood and lymphatic system disorders (SOC)", "value": "0 n (%)"}, {"measurement": "TEAE leading to permanent treatment discontinuation: Blood glucose decreased", "value": "0 n (%)"}, {"measurement": "TEAE leading to permanent treatment discontinuation: Cardiac disorders (SOC)", "value": "1 (0.3%) n (%)"}, {"measurement": "TEAE leading to permanent treatment discontinuation: Cardiac failure chronic", "value": "1 (0.3%) n (%)"}, {"measurement": "TEAE leading to permanent treatment discontinuation: Cough", "value": "0 n (%)"}, {"measurement": "TEAE leading to permanent treatment discontinuation: Decreased appetite", "value": "0 n (%)"}, {"measurement": "TEAE leading to permanent treatment discontinuation: Dehydration", "value": "0 n (%)"}, {"measurement": "TEAE leading to permanent treatment discontinuation: Diabetic bullosis", "value": "0 n (%)"}, {"measurement": "TEAE leading to permanent treatment discontinuation: Diarrhoea", "value": "0 n (%)"}, {"measurement": "TEAE leading to permanent treatment discontinuation: Dyspepsia", "value": "0 n (%)"}, {"measurement": "TEAE leading to permanent treatment discontinuation: Epigastric discomfort", "value": "0 n (%)"}, {"measurement": "TEAE leading to permanent treatment discontinuation: Gastric ulcer haemorrhage", "value": "0 n (%)"}, {"measurement": "TEAE leading to permanent treatment discontinuation: Gastrointestinal disorders (SOC)", "value": "0 n (%)"}, {"measurement": "TEAE leading to permanent treatment discontinuation: Headache", "value": "0 n (%)"}, {"measurement": "TEAE leading to permanent treatment discontinuation: Hepatic mass", "value": "0 n (%)"}, {"measurement": "TEAE leading to permanent treatment discontinuation: Hepatobiliary disorders (SOC)", "value": "0 n (%)"}, {"measurement": "TEAE leading to permanent treatment discontinuation: Hot flush", "value": "0 n (%)"}, {"measurement": "TEAE leading to permanent treatment discontinuation: Hypoglycaemia", "value": "0 n (%)"}, {"measurement": "TEAE leading to permanent treatment discontinuation: Immune system disorders (SOC)", "value": "1 (0.3%) n (%)"}, {"measurement": "TEAE leading to permanent treatment discontinuation: Invasive ductal breast carcinoma", "value": "0 n (%)"}, {"measurement": "TEAE leading to permanent treatment discontinuation: Investigations (SOC)", "value": "0 n (%)"}, {"measurement": "TEAE leading to permanent treatment discontinuation: Lymphadenopathy", "value": "0 n (%)"}, {"measurement": "TEAE leading to permanent treatment discontinuation: Metabolism and nutrition disorders (SOC)", "value": "0 n (%)"}, {"measurement": "TEAE leading to permanent treatment discontinuation: Metastases to liver", "value": "0 n (%)"}, {"measurement": "TEAE leading to permanent treatment discontinuation: Metastases to peritoneum", "value": "0 n (%)"}, {"measurement": "TEAE leading to permanent treatment discontinuation: Nasal congestion", "value": "0 n (%)"}, {"measurement": "TEAE leading to permanent treatment discontinuation: Nausea", "value": "0 n (%)"}, {"measurement": "TEAE leading to permanent treatment discontinuation: Neoplasms benign, malignant and unspecified (incl cysts and polyps) (SOC)", "value": "0 n (%)"}, {"measurement": "TEAE leading to permanent treatment discontinuation: Nervous system disorders (SOC)", "value": "0 n (%)"}, {"measurement": "TEAE leading to permanent treatment discontinuation: Pancreatic carcinoma metastatic", "value": "0 n (%)"}, {"measurement": "TEAE leading to permanent treatment discontinuation: Renal and urinary disorders (SOC)", "value": "0 n (%)"}, {"measurement": "TEAE leading to permanent treatment discontinuation: Renal failure", "value": "0 n (%)"}, {"measurement": "TEAE leading to permanent treatment discontinuation: Respiratory, thoracic and mediastinal disorders (SOC)", "value": "0 n (%)"}, {"measurement": "TEAE leading to permanent treatment discontinuation: Seasonal allergy", "value": "1 (0.3%) n (%)"}, {"measurement": "TEAE leading to permanent treatment discontinuation: Skin and subcutaneous tissue disorders (SOC)", "value": "1 (0.3%) n (%)"}, {"measurement": "TEAE leading to permanent treatment discontinuation: Skin ulcer haemorrhage", "value": "1 (0.3%) n (%)"}, {"measurement": "TEAE leading to permanent treatment discontinuation: Thrombosis", "value": "0 n (%)"}, {"measurement": "TEAE leading to permanent treatment discontinuation: Tremor", "value": "0 n (%)"}, {"measurement": "TEAE leading to permanent treatment discontinuation: Vascular disorders (SOC)", "value": "0 n (%)"}, {"measurement": "TEAE leading to permanent treatment discontinuation: Vomiting", "value": "0 n (%)"}, {"measurement": "Total number of patients with any event adjudicated as pancreatitis by PSAC", "value": "0 n (%)"}]}]}
